Molecular target: Pbs2-HKMT (S. cerevisiae) (UniProt P08018)
Test: proximity labelling

Sequence of Pbs2-HKMT (S. cerevisiae) (P08018 whole entry): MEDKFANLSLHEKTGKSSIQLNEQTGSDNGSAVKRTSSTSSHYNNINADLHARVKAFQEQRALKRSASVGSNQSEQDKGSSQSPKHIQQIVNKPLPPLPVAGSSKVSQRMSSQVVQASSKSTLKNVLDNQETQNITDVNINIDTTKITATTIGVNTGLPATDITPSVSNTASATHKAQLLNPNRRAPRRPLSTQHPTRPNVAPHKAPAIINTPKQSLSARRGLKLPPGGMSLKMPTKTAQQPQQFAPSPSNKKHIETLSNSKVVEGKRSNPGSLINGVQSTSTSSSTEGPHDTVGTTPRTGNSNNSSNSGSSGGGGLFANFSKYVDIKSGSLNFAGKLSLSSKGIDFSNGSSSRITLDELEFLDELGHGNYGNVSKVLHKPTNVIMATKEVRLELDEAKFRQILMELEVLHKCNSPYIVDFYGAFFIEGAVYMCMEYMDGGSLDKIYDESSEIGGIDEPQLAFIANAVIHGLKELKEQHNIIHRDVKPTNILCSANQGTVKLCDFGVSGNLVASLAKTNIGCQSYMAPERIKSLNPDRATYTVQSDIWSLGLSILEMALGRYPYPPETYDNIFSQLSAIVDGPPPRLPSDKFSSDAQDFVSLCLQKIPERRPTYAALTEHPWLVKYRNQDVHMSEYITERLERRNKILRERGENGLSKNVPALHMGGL

Substance	percent reduction in methylation signal in comparison with wild-type Sho1
Sho1-H3-HA Y54M mutant (natural protein)	92%
Sho1-H3-HA Y8A mutant (natural protein)	70%

Source: PMC3428623
